Publication PMC10359280, “A maize epimerase modulates cell wall synthesis and glycosylation during stomatal morphogenesis” (Nature Communications, 2023)
Each block holds one molecule with its values, some of them ahead of it.

Legend:
BZU3 [1] = target: T1, BZU3 (Zea mays, UniProt C0HI30); assay: X-ray crystal structure, […] Å, soaked with […] ligand; type: binding; conditions: ternary complex with NAD+, crystals at pH 5.0
T1 construct: gene ZEAMMB73_Zm00001d029151; residues 1-189 NAD domain, 190-355 sugar domain; homo-dimer
T1 sequence (C0HI30 1-355): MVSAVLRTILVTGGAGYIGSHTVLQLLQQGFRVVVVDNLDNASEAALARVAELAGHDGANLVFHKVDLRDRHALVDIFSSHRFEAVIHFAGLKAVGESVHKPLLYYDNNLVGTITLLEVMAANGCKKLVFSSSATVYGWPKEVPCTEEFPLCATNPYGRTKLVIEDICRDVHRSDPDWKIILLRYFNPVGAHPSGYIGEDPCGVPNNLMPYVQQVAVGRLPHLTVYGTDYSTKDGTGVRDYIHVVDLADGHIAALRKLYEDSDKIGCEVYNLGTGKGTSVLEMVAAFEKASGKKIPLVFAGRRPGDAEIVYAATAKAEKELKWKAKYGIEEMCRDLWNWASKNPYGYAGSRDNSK

[2] = target: BZU3 (maize UDP-glucose 4-epimerase), recombinant 6×His-BZU3 (maize); assay: crystal structure; BZU3 (~5.0 mg/ml) crystallised by sitting-drop vapor diffusion, 100 mM sodium malonate pH 5.0, 12~16% PEG3350; apo form and crystals soaked with 5 mM UDP-Glc or UDP-GlcNAc
BZU3 [3] = target: T1, BZU3; assay: X-ray crystal structure; type: binding; conditions: no ligand soak for 7XPP; with UDP-Glc 7XPO; with UDP-GlcNAc 7XPQ
[4] = substrate: CC(=O)N[C@H]1[C@@H](OP(=O)(O)OP(=O)(O)OC[C@H]2O[C@@H](n3ccc(=O)[nH]c3=O)[C@H](O)[C@@H]2O)O[C@H](CO)[C@@H](O)[C@@H]1O; assay: HPLC of UDP-GlcNAc/UDP-GalNAc, Michaelis-Menten; type: biochemical, Zea mays; conditions: similar protocol (10 mM Tris-HCl pH 8.0, 30 °C)
[5] = substrate: CC(=O)N[C@H]1[C@@H](OP(=O)(O)OP(=O)(O)OC[C@H]2O[C@@H](n3ccc(=O)[nH]c3=O)[C@H](O)[C@@H]2O)O[C@H](CO)[C@H](O)[C@@H]1O; assay: HPLC of UDP-GlcNAc/UDP-GalNAc, Michaelis-Menten; type: biochemical, Zea mays; conditions: similar protocol (10 mM Tris-HCl pH 8.0, 30 °C)
[6] = substrate: O=c1ccn([C@@H]2O[C@H](COP(=O)(O)OP(=O)(O)O[C@H]3O[C@H](CO)[C@H](O)[C@H](O)[C@H]3O)[C@@H](O)[C@H]2O)c(=O)[nH]1; assay: HPLC of UDP-Glc/UDP-Gal, Michaelis-Menten; type: biochemical, Zea mays; conditions: 10 mM Tris-HCl pH 8.0, 30 °C, 25 nM enzyme, 1 min
[7] = substrate: O=c1ccn([C@@H]2O[C@H](CO[P@@](=O)(O)O[P@@](=O)(O)O[C@H]3O[C@H](CO)[C@@H](O)[C@H](O)[C@H]3O)[C@@H](O)[C@H]2O)c(=O)[nH]1; assay: HPLC of UDP-Glc/UDP-Gal, Michaelis-Menten; type: biochemical, Zea mays; conditions: 10 mM Tris-HCl pH 8.0, 30 °C, 25 nM enzyme, 1 min

Molecule: CC(=O)N[C@H]1[C@@H](OP(=O)(O)OP(=O)(O)OC[C@H]2O[C@@H](n3ccc(=O)[nH]c3=O)[C@H](O)[C@@H]2O)O[C@H](CO)[C@@H](O)[C@@H]1O [UDP-GlcNAc]
X-ray crystal structure, 2.15 Å, soaked with 5 mM ligand (BZU3 [1]): The structure of BZU3 in complex with NAD^+/UDP-GlcNAc was similar to that of BZU3/NAD^+/UDP-Glc

stoichiometry N [2]: 2
Molecule: BZU3 (maize UDP-glucose 4-epimerase), recombinant 6×His-BZU3 (enzyme)

Molecule: NC(=O)c1ccc[n+]([C@@H]2O[C@H](COP(=O)(O)OP(=O)(O)OC[C@H]3O[C@@H](n4cnc5c(N)ncnc54)[C@H](O)[C@@H]3O)[C@@H](O)[C@H]2O)c1 [NAD^+]
X-ray crystal structure (BZU3 [3]): both Y157 and K161 directly interact with the ribose moiety of NAD^+

B1: BZU3 (Zea mays) (protein)
chain: T1 sequence (C0HI30 1-355)
notes: residues 1-189 NAD domain, 190-355 sugar domain; homo-dimer
Km [4]: 400 µM | Km [5]: 500 µM | Km [6]: 1450 µM | Km [7]: 2670 µM
